Values of other authors, collected in patent publication US20170022546.

Target: T1, KZF (Kaiso zinc finger domain, three C2H2 fingers) (UniProt Q86T24)
T1 sequence: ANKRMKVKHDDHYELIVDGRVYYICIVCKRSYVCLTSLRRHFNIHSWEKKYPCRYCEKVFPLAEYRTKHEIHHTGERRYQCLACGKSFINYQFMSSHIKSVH
Conditions: 5mC; CITED ref 45; 1:1 complex

consecutive methylated CpG target (literature)
Kd: 0.21 nM
